Results taken from the supplement of paper PMC9170038.

Tested on: MS2 coat protein
Test: apparent KD of MS2 coat protein; designed switch direction (-1 OFF switch, 1 ON switch): -1; higher = weaker reporter binding
How it was run: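 SNAP-549-labelled MS2 coat protein was titrated, doubling from 0.7 or 1.5 nM to 3 µM, over designed RNA switches transcribed on Illumina chips by stalled E. coli RNA polymerase. Runs were done without input, with 200 uM small-molecule ligand, or with an oligonucleotide input. Apparent KD is the per-design median over clusters of curve-fitted normalised fluorescence.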

[1] = input ligand: microRNA oligo, concentration not stated
[2] = Eterna round: R95, input ligand: FMN 200 uM
[3] = Eterna round: R95, input ligand: microRNA oligo, concentration not stated
[4] = Eterna round: R95, input ligand: none

Sequence: AGCUGUGGCCGAGGAUAUCUAAACCUUCAAACCGAGGUAUACUCGGACAUGAGGAUCACCCAUGUAGAGAAGGCGGUCUCAGCA [Eli eng2 - 035] (Eterna round: R96, puzzle: Exclusion NG 2)
- apparent KD of MS2 coat protein (input ligand: FMN 200 uM): 34.7 nM
- apparent KD of MS2 coat protein [1]: 9.78 nM
- apparent KD of MS2 coat protein (input ligand: none): 13.4 nM

Sequence: AGCUGUGGCCGAGGAUAUCUAACUUCAAUAACCGAAAUAUAAUCGGACAUGAGGAUCACCCAUGUAGAGAAGGCGGUCUCAGCA [Eli eng2 - 082] (Eterna round: R96, puzzle: Exclusion NG 2)
- apparent KD of MS2 coat protein [1]: 10.7 nM

Sequence: AGCUGUGGCCGAGGAUAUUGCGAACCAUGGAAAACCAUGGAAACUCUACAUGAGGAUCACCCAUGUAAGAAGGCGGUCUCAGCA [Eli eng2 - 025] (Eterna round: R96, puzzle: Exclusion NG 2)
- apparent KD of MS2 coat protein (input ligand: FMN 200 uM): 18.7 nM
- apparent KD of MS2 coat protein [1]: 10.7 nM
- apparent KD of MS2 coat protein (input ligand: none): 15.8 nM

Sequence: AGCUUUUUGUUCGUCUUACACAUGAGGAUCACCCAUGUGUCGGACCGCAUCGAUAGAUGUAGACCGAGAAGCAUGGG [Omdei Mir OFFv1 C9] (Eterna round: R97, puzzle: Sensor, turn-off variant 1)
- apparent KD of MS2 coat protein (input ligand: FMN 200 uM): 95.6 nM
- apparent KD of MS2 coat protein (input ligand: none): 98.9 nM

Sequence: AGGAUACAUGAGGAUCACCCAUGUGAGGAUAUACGAUAGCUCAGGAAGAGAUUAGUAUGUAGAAGGUGCGGGUG [Eternabot (L1) Solution 49] (Eterna round: R97, puzzle: Exclusion 1)
- apparent KD of MS2 coat protein (input ligand: FMN 200 uM): 205 nM
- apparent KD of MS2 coat protein (input ligand: none): 198 nM

Sequence: AGGAUGCUAGGAUAUACAGGUUGAAAACUGAUCGGCGCCAGACAUGAGGAUCACCCAUGUAGAAGGAGCGAGGC [EX2 B.26] (Eterna round: R97, puzzle: Exclusion 2)
- apparent KD of MS2 coat protein (input ligand: FMN 200 uM): 36.1 nM
- apparent KD of MS2 coat protein (input ligand: none): 38.7 nM

Sequence: AGGCCCGAUGGAGGAUAUGUAAGUAAUUGAGAUACUUCAUGUCACAUGAGGAUCACCCAUGUACGGCAGAAGGCCGACGGAGCC [Raanoner] (Eterna round: R96, puzzle: Exclusion NG 2)
- apparent KD of MS2 coat protein (input ligand: FMN 200 uM): 24.9 nM
- apparent KD of MS2 coat protein [1]: 17.3 nM
- apparent KD of MS2 coat protein (input ligand: none): 20 nM

Sequence: AGGGAUAAAGGAUAUACAUGAGGAUCACCCAUGUUGAGGAAAGUGAGAGGUGGCGAUAGUAGAAGGUUAGGUAG [JR_Exclu3_Sub082] (puzzle: Exclusion 3)
- apparent KD of MS2 coat protein [2]: 86.8 nM
- apparent KD of MS2 coat protein [3]: 78.8 nM
- apparent KD of MS2 coat protein [4]: 137 nM

Sequence: AGGGAUAAAGGAUAUACAUGAGGAUCACCCAUGUUGAGGAAAGUUAGAUGAGGAGGAAGUAGAAGGUUAGACGA [JR_Exclu3_Sub087] (puzzle: Exclusion 3)
- apparent KD of MS2 coat protein [2]: 24.3 nM
- apparent KD of MS2 coat protein [3]: 35.4 nM
- apparent KD of MS2 coat protein [4]: 42.5 nM

Sequence: AGGUAACAUGAGGAUCACCCAUGUCAGGAUAUCAGUAAGAUUAGAAUAGAGUAGAGUAUGAGAAGGGACUAUAU [Excluse me! 20 - Jieux - Exclusion 1] (puzzle: Exclusion 1)
- apparent KD of MS2 coat protein [2]: 33.3 nM
- apparent KD of MS2 coat protein [3]: 37.3 nM
- apparent KD of MS2 coat protein [4]: 50 nM

Sequence: AGGUAGUCAGGAUAUUAGUAGUAGCGGGAUAACGCUACUAUUGAGAAGGGACAUGAGGAUCACCCAUGUUUUGU [JR_Ex4_Sub067] (Eterna round: R97, puzzle: Exclusion 4)
- apparent KD of MS2 coat protein (input ligand: FMN 200 uM): 54.7 nM
- apparent KD of MS2 coat protein (input ligand: none): 22.5 nM

Sequence: AGGUCCUUCUGGAGACAUGAGGAUCACCCAUGUCGAGUCAGCGAGGAUAUCGGUUAAUAAUGUGAUGAGAAGGCGCAGACCGAU [Ex NG3 #53] (Eterna round: R96, puzzle: Exclusion NG 3)
- apparent KD of MS2 coat protein (input ligand: FMN 200 uM): 15.5 nM
- apparent KD of MS2 coat protein [1]: 8.55 nM
- apparent KD of MS2 coat protein (input ligand: none): 11.3 nM

Sequence: AGGUGCUUCAGGAGACAUGAGGAUCACCCAUGUUGAGUUAGCGAGGAUAUCGGUAACCCAUGUGAUGAGAAGGCGCAAACCAAU [Ex NG3 #46] (Eterna round: R96, puzzle: Exclusion NG 3)
- apparent KD of MS2 coat protein (input ligand: FMN 200 uM): 92.9 nM
- apparent KD of MS2 coat protein [1]: 52.4 nM
- apparent KD of MS2 coat protein (input ligand: none): 74.1 nM

Sequence: AGGUGCUUCUGGAGACAUGAGGAUCACCCAUGUUGAGUUAGCGAGGAUAUCGGUAACGCAUGUGAUGAGAAGGCGCAAACCAAU [Ex NG3 #47] (Eterna round: R96, puzzle: Exclusion NG 3)
- apparent KD of MS2 coat protein (input ligand: FMN 200 uM): 79.7 nM
- apparent KD of MS2 coat protein [1]: 30.7 nM
- apparent KD of MS2 coat protein (input ligand: none): 47 nM

Sequence: AGGUGUAGAGGAUAUACAGUGUAUUACAUGAGGAUCACCCAUGUCCUUCAAUGGGUGUCAGUAGAAGGCUACACCA [Omei Ex5 C2] (Eterna round: R97, puzzle: Exclusion 5)
- apparent KD of MS2 coat protein (input ligand: FMN 200 uM): 255 nM
- apparent KD of MS2 coat protein (input ligand: none): 1660 nM

Sequence: AGUAACCGUCACGAAAGUGAUGGUUACACAAGUGUAAUAACAUGAGGAUCACCCAUGUCCUCAUUUGCUCGUCUUAU [Sensor 3 - 36] (puzzle: Sensor v3, turn-off variant 2)
- apparent KD of MS2 coat protein [2]: 41.9 nM
- apparent KD of MS2 coat protein [3]: 121 nM
- apparent KD of MS2 coat protein [4]: 49.4 nM

Sequence: AGUAACCGUCACGAAAGUGAUGGUUACGCAAGCAAUUGUACAUGAGGAUCACCCAUGUCCUCAUUUGCUCGUCUUAU [Sensor 3 - 42] (puzzle: Sensor v3, turn-off variant 2)
- apparent KD of MS2 coat protein [2]: 313 nM
- apparent KD of MS2 coat protein [3]: 378 nM
- apparent KD of MS2 coat protein [4]: 357 nM

Sequence: AGUAACCGUCACGAAAGUGAUGGUUACGCAAGUAAAUGUACAUGAGGAUCACCCAUGUCCUCAUUUGCUCGUCUUAU [Sensor 3 - 44] (puzzle: Sensor v3, turn-off variant 2)
- apparent KD of MS2 coat protein [2]: 188 nM
- apparent KD of MS2 coat protein [3]: 330 nM

Sequence: AGUAACUAUCACGAAAGUGAUAGUUACAACAAGUGAUAAACAUGAGGAUCACCCAUGUCCUCAUUUGCUCGUUUUAU [Sensor 3 - 15] (puzzle: Sensor v3, turn-off variant 2)
- apparent KD of MS2 coat protein [2]: 328 nM
- apparent KD of MS2 coat protein [3]: 646 nM
- apparent KD of MS2 coat protein [4]: 323 nM

Sequence: AGUAACUCAAGAGGAUAUCACAUGAGGAUCACCCAUGUAUAGCGCGCUACGCUAGUCCUCGUAUUUGAGAAGGUUUGAUAAAUG [Quve] (Eterna round: R96, puzzle: Exclusion NG 2)
- apparent KD of MS2 coat protein (input ligand: FMN 200 uM): 10.4 nM
- apparent KD of MS2 coat protein [1]: 11.4 nM
- apparent KD of MS2 coat protein (input ligand: none): 14.3 nM

Sequence: AGUAAGCUAGGAUAUGCUUUGGGAAAGCAAUCCUUCGAUAAACUUGAGGAUCACCCAAGUAGAAGGAGCUUACU [jl-ex2.4.50 ViennaUCT mod] (Eterna round: R97, puzzle: Exclusion 2)
- apparent KD of MS2 coat protein (input ligand: FMN 200 uM): 99.8 nM
- apparent KD of MS2 coat protein (input ligand: none): 25.4 nM

Sequence: AGUACUAACACGAAAGUGUUAGUACAAUAAGCUUGUGAUACAUGAGGAUCACCCAUGUCCUCAUAAGCUCGUCUUAU [salish99_TOv2_r3_045] (Eterna round: R96, puzzle: Sensor v3, turn-off variant 2)
- apparent KD of MS2 coat protein (input ligand: FMN 200 uM): 23.7 nM
- apparent KD of MS2 coat protein [1]: 714 nM
- apparent KD of MS2 coat protein (input ligand: none): 24.2 nM

Sequence: AGUACUAACACGAAAGUGUUAGUACAAUAAGCUUGUGAUACAUGAGGAUCACCCAUGUCCUCAUAAGCUCGUCUUAU [salish99_TOv2_r3_045] (puzzle: Sensor v3, turn-off variant 2)
- apparent KD of MS2 coat protein [2]: 24.7 nM
- apparent KD of MS2 coat protein [3]: 652 nM
- apparent KD of MS2 coat protein [4]: 21.9 nM

Sequence: AGUACUAACACGAAAGUGUUAGUACUAUAAGCUUGUGUUACAUGAGGAUCACCCAUGUCCUCAUAAGCUCGUCUUAA [Mat - Sensor v3 - Turn-off var 2 - D63] (puzzle: Sensor v3, turn-off variant 2)
- apparent KD of MS2 coat protein [2]: 35.2 nM
- apparent KD of MS2 coat protein [3]: 437 nM
- apparent KD of MS2 coat protein [4]: 41 nM

Sequence: AGUACUAACACGAGAGUGUUAGUACUAUAAGCUUGUGAAACAUGAGGAUCACCCAUGUCCUCAUAAGCUCGUCUUAU [Mat - Sensor v3 - Turn-off var 2 - D103] (Eterna round: R96, puzzle: Sensor v3, turn-off variant 2)
- apparent KD of MS2 coat protein (input ligand: FMN 200 uM): 13.8 nM
- apparent KD of MS2 coat protein [1]: 452 nM
- apparent KD of MS2 coat protein (input ligand: none): 16.8 nM

Sequence: AGUACUAACACGAGAGUGUUAGUACUAUAAGCUUGUGAAACAUGAGGAUCACCCAUGUCCUCAUAAGCUCGUCUUAU [Mat - Sensor v3 - Turn-off var 2 - D103] (puzzle: Sensor v3, turn-off variant 2)
- apparent KD of MS2 coat protein [2]: 15.3 nM
- apparent KD of MS2 coat protein [3]: 682 nM
- apparent KD of MS2 coat protein [4]: 12.5 nM

Sequence: AGUACUAACAGCUGACUGUUAGUACUGUAGGUUUGUGUUACAUGAGGAUCACCCAUGUCCUCAUAGGCUCGUCUUGU [Mat - Sensor v3 - Turn-off var 2 - D97] (puzzle: Sensor v3, turn-off variant 2)
- apparent KD of MS2 coat protein [2]: 291 nM
- apparent KD of MS2 coat protein [3]: 100 nM
- apparent KD of MS2 coat protein [4]: 284 nM

Sequence: AGUACUAUCACGAAAGUGAUAGUACAAAUAGCAAGUGAAACAUGAGGAUCACCCAUGUCCUCAUUUGCUCGUCUUAA [Mat - Sensor v2 -ver2- JL mod - D66] (Eterna round: R96, puzzle: Sensor v2, turn-off variant 2)
- apparent KD of MS2 coat protein (input ligand: FMN 200 uM): 12.6 nM
- apparent KD of MS2 coat protein [1]: 320 nM
- apparent KD of MS2 coat protein (input ligand: none): 14.3 nM

Sequence: AGUACUAUGCGUGCUGACAUGCGUAGUGCAGCAGGUGUAACAUGAGGAUCACCCAUGUCCUCAUUUGCUCGUCUUAU [Mat - Sensor v3 - Turn-off var 2 - D12] (puzzle: Sensor v3, turn-off variant 2)
- apparent KD of MS2 coat protein [2]: 116 nM
- apparent KD of MS2 coat protein [3]: 201 nM
- apparent KD of MS2 coat protein [4]: 127 nM

Sequence: AGUACUUACUCGAUAGUGUUAGUACAAUAAGCUUGUGAAACAUGAGGAUCACCCAUGUCCUCAUAAGCUCGUCUUAU [salish99_TOv2_r3_1005] (puzzle: Sensor v3, turn-off variant 2)
- apparent KD of MS2 coat protein [2]: 17.6 nM
- apparent KD of MS2 coat protein [3]: 627 nM
- apparent KD of MS2 coat protein [4]: 15.8 nM

Sequence: AGUAGAUCUACGCUUGCGUGGAUCUGCUAUGCAGGUGUCACAUGAGGAUCACCCAUGUCCUCAUUUGUUCGUCUUAU [JL turnoff v2 99.16] (puzzle: Sensor v3, turn-off variant 2)
- apparent KD of MS2 coat protein [2]: 18.7 nM
- apparent KD of MS2 coat protein [3]: 33.8 nM
- apparent KD of MS2 coat protein [4]: 15.5 nM
